The source of these data is patent US6903077, “Methods and products for delivering nucleic acids” (University of Vermont and State Agricultural College).

Series [1] concerns T1, GST-Z2-P123.
T1 sequence: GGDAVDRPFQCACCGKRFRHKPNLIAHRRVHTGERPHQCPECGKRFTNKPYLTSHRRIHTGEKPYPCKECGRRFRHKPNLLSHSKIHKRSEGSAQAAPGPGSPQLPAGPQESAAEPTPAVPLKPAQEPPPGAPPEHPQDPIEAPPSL

In another series the test system is T2, GST-Z1.
T2 sequence: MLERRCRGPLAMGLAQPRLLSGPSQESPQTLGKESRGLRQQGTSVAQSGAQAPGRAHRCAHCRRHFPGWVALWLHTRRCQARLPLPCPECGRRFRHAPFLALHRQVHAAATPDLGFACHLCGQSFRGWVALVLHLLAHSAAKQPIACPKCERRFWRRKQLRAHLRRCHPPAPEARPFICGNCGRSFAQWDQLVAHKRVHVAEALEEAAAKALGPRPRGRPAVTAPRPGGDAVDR

A further series has as its system T3, GST-Z3.
T3 sequence: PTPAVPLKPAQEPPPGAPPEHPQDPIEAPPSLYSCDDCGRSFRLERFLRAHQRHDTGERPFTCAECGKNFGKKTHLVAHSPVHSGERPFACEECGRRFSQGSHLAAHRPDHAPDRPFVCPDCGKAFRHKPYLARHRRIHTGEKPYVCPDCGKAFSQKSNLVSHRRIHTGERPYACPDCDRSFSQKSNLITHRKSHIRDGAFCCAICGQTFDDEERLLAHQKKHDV

The test system of a further series is T4, GST-Z2.
T4 sequence: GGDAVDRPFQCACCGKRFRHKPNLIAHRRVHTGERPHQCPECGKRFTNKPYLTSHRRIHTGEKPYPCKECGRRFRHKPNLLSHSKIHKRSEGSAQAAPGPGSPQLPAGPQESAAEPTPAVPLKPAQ

Series [2] deals with the molecule itself. Briefly: Gel shift Multimers, self-association on DNA. The protocol:
Binding reactions (30 ul) contained 0.05 pmole labeled DSR probe, 40 mM KCl, 10 mM HEPES (pH 8.0), 4% Ficoll, 33 ng/ul poly dIdC, 1 mM DTT, 16.7 uM ZnCl_2, and 0.5–10 ug of protein. Binding reactions were incubated for 20 minutes at 37° C., 15 min on ice, and then resolved on 6% native polyacrylamide gels in 0.25×TBE buffer. Gels were dried, exposed to Kodak XAR film at −80° C., and signals were detected by autoradiography. Competition binding reactions were assembled as described above with the addition of 0.5, 5, or 50 pmole of unlabeled double-stranded competitor DNA to the reactions prior to the addition of protein. For time course competition assays, 60 ul binding reactions were assembled and incubated as above. Following the incubation step on ice, 50 pmole of unlabeled DSR competitor DNA was added to the binding reactions and samples where removed at the indicated time points, loaded on a 6% native PAGE gel, and resolved by electrophoresis at 25V until all samples were loaded. After the final sample was loaded, the voltage was increased to 100V and samples were resolved by electrophoresis for an additional 1.5 hours. Signals on the dried gels were quantified on a phosphoimager (BioRad model GS 525). A value for % probe bound was calculated as a ratio of protein-bound probe to total probe (bound and unbound probe) per sample and values were plotted against time. […]
On the technique in general: A gel shift assay detects complexes by their altered migration in electrophoresis.

Series [3] concerns the target T5, GST-Z12 (Homo sapiens, UniProt Q9BWE0 SEQ:1-349).
T5 chain: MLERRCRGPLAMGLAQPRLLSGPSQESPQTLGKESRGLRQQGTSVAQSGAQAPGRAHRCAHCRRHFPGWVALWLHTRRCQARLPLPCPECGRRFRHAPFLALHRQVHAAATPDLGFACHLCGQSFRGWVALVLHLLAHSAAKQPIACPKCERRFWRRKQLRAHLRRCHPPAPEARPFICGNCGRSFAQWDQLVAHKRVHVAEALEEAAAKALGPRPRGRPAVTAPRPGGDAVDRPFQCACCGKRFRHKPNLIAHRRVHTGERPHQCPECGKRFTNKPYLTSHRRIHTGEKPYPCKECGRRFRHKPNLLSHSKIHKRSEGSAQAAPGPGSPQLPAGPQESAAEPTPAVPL
Briefly: competition; USR competes. The note with it: tags: GST N-terminal. The protocol: (§1) Binding reactions were incubated for 20 minutes at 37° C., 15 min on ice, and then resolved on 6% native polyacrylamide gels in 0.25×TBE buffer. Gels were dried, exposed to Kodak XAR film at −80° C., and signals were detected by autoradiography. Competition binding reactions were assembled as described above with the addition of 0.5, 5, or 50 pmole of unlabeled double-stranded competitor DNA to the reactions prior to the addition of protein. For time course competition assays, 60 ul binding reactions were assembled and incubated as above. Following the incubation step on ice, 50 pmole of unlabeled DSR competitor DNA was added to the binding reactions and samples where removed at the indicated time points, loaded on a 6% native PAGE gel, and resolved by electrophoresis at 25V until all samples were loaded. After the final sample was loaded, the voltage was increased to 100V and samples were resolved by electrophoresis for an additional 1.5 hours. Signals on the dried gels were quantified on a phosphoimager (BioRad model GS 525). A value for % probe bound was calculated as a ratio of protein-bound probe to total probe (bound and unbound probe) per sample and values were plotted against time.
(§2) Binding of the GST-Z2 to the DSR probe was stable in the presence of 1000-fold excess of IBF, SV-AT, or Py-AT competitors, but was competed with 100-fold excess of unlabeled DSR DNA. […]

The target of series [4] is T6, GST-Z2 (RIP60 zinc fingers 6-8 plus part of PRR, GST-Z2-P12) (Homo sapiens, UniProt Q9BWE0 SEQ:1-126).
T6 sequence: T4 sequence
Nature of the series: competition; USR competes for binding to DSR. Conditions: tags: GST N-terminal. As for the experimental part: as §1, §2

Series [5] deals with T7, GST-Z1 (RIP60 zinc fingers 1-5) (Homo sapiens, UniProt Q9BWE0 SEQ:1-234).
T7 chain: T2 sequence
Nature of the series: EMSA; footprinting and gel shift; unstable binding. The note with it: tags: GST N-terminal.

Series [6] deals with T7, GST-Z1 (RIP60 zinc fingers 1-5). Nature of the series: competition; not significantly competing. Conditions: tags: GST N-terminal. The protocol: as §1, §2
Series [7] has as its target T6, GST-Z2 (RIP60 zinc fingers 6-8 plus …). Briefly: competition; no competition at 1000-fold excess. Conditions: tags: GST N-terminal. The protocol:
as §1, §2

The target in series [8] is T7, GST-Z1 (RIP60 zinc fingers 1-5). Briefly: EMSA; competed by 100-fold DSR; less stable than GST-Z2. Conditions: tags: GST N-terminal; label: 32P; 5' overhangs. The protocol:
(§3) A value for % probe bound was calculated as a ratio of protein-bound probe to total probe (bound and unbound probe) per sample and values were plotted against time.
(§4) Binding of the GST-Z2 to the DSR probe was stable in the presence of 1000-fold excess of IBF, SV-AT, or Py-AT competitors, but was competed with 100-fold excess of unlabeled DSR DNA. […] In contrast, binding of GST-Z3 to the DSR probe was eliminated by a 1000-fold excess of all unlabelled competitors tested. […] In a like manner, the USR was also able to compete for binding of these proteins to the DSR.
(§5) To ascertain if Z1 and Z2 show any differences in binding activity, the stability of Z1 and Z2 complexes with the DSR was examined in competition gel shift assays. Identical amounts of GST-Z1 and GST-Z2 were incubated with ^32P-labeled probe for 20 min, and then a 1000-fold molar excess of unlabeled competitor DSR was added. Samples were removed from the binding reactions at various times thereafter and loaded directly onto non-denaturing gels running at low voltage. After all the samples were loaded, the voltage was increased to 100V for 1 hr. After drying the gels, the signals in the shifted complexes were quantified by phosphoimaging.

The next series deals with T8, GST-Z2-P1 (Homo sapiens, UniProt Q9BWE0 SEQ:225-337).
T8 sequence: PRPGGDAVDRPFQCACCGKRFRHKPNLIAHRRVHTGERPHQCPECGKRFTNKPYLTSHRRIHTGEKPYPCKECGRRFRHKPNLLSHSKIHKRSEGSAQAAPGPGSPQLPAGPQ
Briefly: EMSA; no multimers. Conditions: tags: GST N-terminal; label: 32P; 5' overhangs.

For series [9], the target named is T9, GST-Z2-P123 (Homo sapiens, UniProt Q9BWE0 SEQ:1-147).
T9 sequence: T1 sequence
Nature of the series: EMSA; multimers. The note with it: tags: GST N-terminal; label: 32P; 5' overhangs.

Series [10] has as its target T5, GST-Z12. Nature of the series: EMSA; specific. The note with it: tags: GST N-terminal; label: 32P; 5' overhangs. As for the experimental part: DSR (50 pmole) was labeled by Klenow fill-in reaction of 5' overhangs in the presence of [α-^32P]-dATP. Other probes were end-labeled with polynucleotide kinase and [γ-^32P]. Binding reactions (30 ul) contained 0.05 pmole labeled DSR probe, 40 mM KCl, 10 mM HEPES (pH 8.0), 4% Ficoll, 33 ng/ul poly dIdC, 1 mM DTT, 16.7 uM ZnCl_2, and 0.5–10 ug of protein. Binding reactions were incubated for 20 minutes at 37° C., 15 min on ice, and then resolved on 6% native polyacrylamide gels in 0.25×TBE buffer. Gels were dried, exposed to Kodak XAR film at −80° C., and signals were detected by autoradiography. Competition binding reactions were assembled as described above with the addition of 0.5, 5, or 50 pmole of unlabeled double-stranded competitor DNA to the reactions prior to the addition of protein. For time course competition assays, 60 ul binding reactions were assembled and incubated as above. […] Signals on the dried gels were quantified on a phosphoimager (BioRad model GS 525). A value for % probe bound was calculated as a ratio of protein-bound probe to total probe (bound and unbound probe) per sample and values were plotted against time. […]

For series [11], the target named is T6, GST-Z2 (RIP60 zinc fingers 6-8 plus …). Briefly: EMSA; competed by 100-fold DSR; more stable than GST-Z1. Conditions: tags: GST N-terminal; label: 32P; 5' overhangs. The protocol: as §3, §4, §5

As for casein kinase II, the “phosphorylation in vitro (32P-ATP, SDS gel, autoradiography)” value in the series on GST-Z2-P123 [1] is “Both GST-Z2 and GST-Z2P123 were phosphorylated”; with GST-Z1 it was “neither GST-Z1 nor GST-Z3 were phosphorylated to any great degree”; in the series with GST-Z3, “neither GST-Z1 nor GST-Z3 were phosphorylated to any great degree”; in the series with GST-Z2 it was “Only the GST-Z2 polypeptide, which contains the casein kinase II phosphorylation domain was phosphorylated”. Besides, in the series on GST-Z2, the “phosphorylation in vitro with and without DNA” value is “GST-Z2 polypeptide was phosphorylated by casein kinase II in the absence of DNA. However, the extent of phosphorylation increased in the presence of the double stranded DRS oligo, the linearized plasmid pCH127 and the supercoiled pCH127”.

B1: GST-Z2 (other)
chain: T4 sequence
notes: also called GST-Z2(P12); GST-Z2-P12; not shown: glutathione-S-transferase (GST) purification tag, 26 kD, encoded by pGEX-2T (Pharmacia Biotech), at the amino terminus
B1: the binding result in [2] was “binds”.

B2: USR (OCH39/OCH40) (dsDNA)
DNA 1: GATCTTAACAGTAATAATAAATATCT
DNA 2: GATCAGATATTTATTATTACTGTTAA
On to B2, for which the binding result (with GST-Z12 [3]; in series [4]; in series [5]) was “binds” in each case.

B3: IBF (OCH13/OCH14) (dsDNA)
DNA 1: GATCCGGGAAGGCGGGCGCTGGGGGCGCTGCGGCGCTGCGCTCCACCT
DNA 2: GATCTAGGTGGAGCGCAGCGCCGCAGCGCCCCCAGCGCCCGCCTTCCCG
Regarding B3, the binding result in series [6] and in [7] was “no binding” each time.

B4: Py-AT (OCH37/OCH38) (dsDNA)
DNA 1: CTGTTTTTTTTAGTATTAAGC
DNA 2: GCTTAATACTAAAAAAAACAG
As to B4, in [7], the binding result is reported as “no binding”.

B5: DSR (OCH7/OCH8) (dsDNA)
DNA 1: GATCTTTTATTATTATTATTAGTTCG
DNA 2: GATCCGAACTAATAATAATAATAAAA
For the molecule B5, the binding result (in series [8]; in the series with GST-Z2-P1; with GST-Z2-P123 [9]; with GST-Z12 [10]; in series [11]) was “binds” throughout.
